The target in this test is human telomerase reverse transcriptase hTERT (WT) (human) (UniProt O14746). The test is described as follows: sucrose gradient sedimentation.

We go through one substance from publication PMC3785136.

In turn, “human telomerase reverse transcriptase hTERT (WT) (from UniProt O14746 1-1132) (enzyme)” gave a stoichiometry N of 2.

In general, stoichiometry N refers to a count of units in the complex or per binding partner.
